Patent publication US20030021774

What was measured:
[1] = biological target: soybean agglutinin (SBA), P05046
[2] = biological target: T1, soybean Bowman-Birk Inhibitor, P01055
T1 chain: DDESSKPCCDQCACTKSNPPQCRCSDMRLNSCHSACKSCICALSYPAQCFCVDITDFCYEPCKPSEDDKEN

[3] = biological target: T2, Soybean Kunitz Trypsin Inhibitor, P01070
T2 chain: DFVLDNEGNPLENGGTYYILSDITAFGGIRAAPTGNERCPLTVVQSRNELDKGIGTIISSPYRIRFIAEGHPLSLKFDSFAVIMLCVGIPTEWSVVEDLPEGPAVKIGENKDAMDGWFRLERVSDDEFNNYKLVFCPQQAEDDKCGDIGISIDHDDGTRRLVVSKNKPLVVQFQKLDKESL

soybean agglutinin (SBA), P05046, sequence (P05046 33-285): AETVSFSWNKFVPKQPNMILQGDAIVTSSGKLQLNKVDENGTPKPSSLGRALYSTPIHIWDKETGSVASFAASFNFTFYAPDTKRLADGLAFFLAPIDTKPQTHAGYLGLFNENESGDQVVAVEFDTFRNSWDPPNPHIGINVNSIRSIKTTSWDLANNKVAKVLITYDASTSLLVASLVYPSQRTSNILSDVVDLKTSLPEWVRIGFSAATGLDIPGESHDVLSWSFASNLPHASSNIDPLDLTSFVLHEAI

B1: protease derived from Bacillus sp. NCIMB 40484 (protein)
chain: MKFKKIAALSLATSLALFPAFGGSSLAKEAPKPFQPINKTLDKGAFESGEVIVKFKDGVSKKAQGSALNKAEANEQKASAKDPFQVLEVADVDQAVKALENNPNVEYAEPNYTFQATWSPNDPYYSAYQYGPQNTSTPAAWDVTRGSSTQTVAVLDSGVDYNHPDLARKVIKGYDFIDRDNNPMDLNGHGTHVAGTVAADTNNGIGVAGMAPDTKILAVRVLDANGSGSLDSIASGIRYAADQGAKVLNLSLGCECNSTTLKSAVDYAWNKGAVVVAAAGNDNVSRTFQPASYPNAIAVGAIDSNDRKASFSNYGTWVDVTAPGVNIASTVPNNGYSYMSGTSMASPHVAGLAALLASQGKNNVQIRQAIEQTADKISGTGTNFKYGKINSNKAVRY
- % of anti-nutritional factor degraded (SDS-PAGE band scanning) [1]: 21%
- % of anti-nutritional factor degraded (SDS-PAGE band scanning) [2]: 41%
- % of anti-nutritional factor degraded (SDS-PAGE band scanning) [3]: 100%
